Data taken from publication doi:10.1101/2023.05.17.541096 (bioRxiv, 2023).

Target: T1, human FIGNL1ΔN (FIGNL1 without the N-terminal 284 aa) (human, UniProt Q6PIW4 285-674)
T1 sequence: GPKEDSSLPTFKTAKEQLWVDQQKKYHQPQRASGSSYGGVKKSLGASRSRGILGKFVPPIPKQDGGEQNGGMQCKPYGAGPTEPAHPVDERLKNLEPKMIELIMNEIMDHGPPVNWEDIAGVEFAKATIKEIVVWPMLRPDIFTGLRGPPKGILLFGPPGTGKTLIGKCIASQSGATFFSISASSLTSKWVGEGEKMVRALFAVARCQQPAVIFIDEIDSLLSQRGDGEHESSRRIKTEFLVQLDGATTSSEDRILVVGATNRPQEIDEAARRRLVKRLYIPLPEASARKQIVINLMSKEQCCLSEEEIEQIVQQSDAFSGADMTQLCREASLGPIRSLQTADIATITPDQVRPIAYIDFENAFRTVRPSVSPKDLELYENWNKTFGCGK
Experiment: native gel or EMSA

binding result: binds
B1: human RAD51 (natural protein)
chain: MAMQMQLEANADTSVEEESFGPQPISRLEQCGINANDVKKLEEAGFHTVEAVAYAPKKELINIKGISEAKADKILAEAAKLVPMGFTTATEFHQRRSEIIQITTGSKELDKLLQGGIETGSITEMFGEFRTGKTQICHTLAVTCQLPIDRGGGEGKAMYIDTEGTFRPERLLAVAERYGLSGSDVLDNVAYARAFNTDHQTQLLYQASAMMVESRYALLIVDSATALYRTDYSGRGELSARQMHLARFLRMLLRLADEFGVAVVITNQVVAQVDGAAMFAADPKKPIGGNIIAHASTTRLYLRKGRGETRICKIYDSPCLPEAEAMFAINADGVGDAKD
